From the supplement of paper PMC10567573

B1: GAGE1 (parent)
chain: QPPEMIGPMRPEQFSDEVEPATPE
B2: SPRY1 (parent)
chain: WIHRPGCRCKNSNTVYCKLESCPS

Variants of: B1
Assay: protein stability index of a GFP-peptide fusion (GPS, HEK-293T) (PSI 1-6); higher = more stable
Conditions: c terminus: a fixed tail appended
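Note: lentivirally expressed fusions sorted by FACS into six bins by GFP to DsRed ratio, PSI derived from sequencing read proportions per bin multiplied by bin number.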

Point of comparison: QPPEGIGPMRPEQFSDEVEPATPE, protein stability index 5.45. Against it:
- QPPEMIGLMRPEQFSDEVEPATPE — higher, 5.52
- QPPEMIGMMRPEQFSDEVEPATPE — lower, 4.75
- QPPEMIGNMRPEQFSDEVEPATPE — higher, 5.91
- QPPEMIGTMRPEQFSDEVEPATPE — higher, 5.62
- QPPEMIGCMRPEQFSDEVEPATPE — higher, 5.48
- QPPEMIGRMRPEQFSDEVEPATPE — lower, 5.24
- QPPEMIGEMRPEQFSDEVEPATPE — higher, 5.86
- QPPEMIGQMRPEQFSDEVEPATPE — higher, 5.76
- QPPEMIGAMRPEQFSDEVEPATPE — higher, 5.5
- QPPEMIGSMRPEQFSDEVEPATPE — higher, 5.54
- QPPEMIGIMRPEQFSDEVEPATPE — lower, 5.09
- QPPEMIGDMRPEQFSDEVEPATPE — lower, 5.1
- QPPEMIGHMRPEQFSDEVEPATPE — higher, 5.47
- QPPEMIGFMRPEQFSDEVEPATPE — lower, 4.9
- QPPEMIGVMRPEQFSDEVEPATPE — higher, 5.67
- QPPEMIGKMRPEQFSDEVEPATPE — higher, 5.46
- QPPEMIGYMRPEQFSDEVEPATPE — lower, 4.92
- QPPEMIGGMRPEQFSDEVEPATPE — the same, 5.45
- QPPEMEGPMRPEQFSDEVEPATPE — higher, 5.81
- QPPEMNGPMRPEQFSDEVEPATPE — higher, 5.72
- QPPEMQGPMRPEQFSDEVEPATPE — lower, 5.32
- QPPEMRGPMRPEQFSDEVEPATPE — higher, 5.86
- QPPEMAGPMRPEQFSDEVEPATPE — higher, 5.59
- QPPEMVGPMRPEQFSDEVEPATPE — higher, 5.79
- QPPEMCGPMRPEQFSDEVEPATPE — higher, 5.91
- QPPEMGGPMRPEQFSDEVEPATPE — the same, 5.45
- QPPEMWGPMRPEQFSDEVEPATPE — higher, 5.83
- QPPEMYGPMRPEQFSDEVEPATPE — higher, 5.65
- QPPEMMGPMRPEQFSDEVEPATPE — higher, 5.59
- QPPEMHGPMRPEQFSDEVEPATPE — higher, 5.72
- QPPEMDGPMRPEQFSDEVEPATPE — higher, 5.79
- QPPEMPGPMRPEQFSDEVEPATPE — higher, 5.52
- QPPEMFGPMRPEQFSDEVEPATPE — higher, 5.89
- QPPEMSGPMRPEQFSDEVEPATPE — higher, 6
- QPPEMTGPMRPEQFSDEVEPATPE — higher, 5.72
- QPPEMKGPMRPEQFSDEVEPATPE — higher, 5.78
- QPPEMLGPMRPEQFSDEVEPATPE — higher, 5.64
- QPPIMIGPMRPEQFSDEVEPATPE — higher, 5.52
- QPPSMIGPMRPEQFSDEVEPATPE — lower, 5.2
- QPPVMIGPMRPEQFSDEVEPATPE — lower, 5.41
- QPPKMIGPMRPEQFSDEVEPATPE — higher, 5.46
- QPPLMIGPMRPEQFSDEVEPATPE — higher, 5.54
- QPPDMIGPMRPEQFSDEVEPATPE — higher, 5.65
- QPPHMIGPMRPEQFSDEVEPATPE — higher, 5.6
- QPPRMIGPMRPEQFSDEVEPATPE — higher, 5.74
- QPPYMIGPMRPEQFSDEVEPATPE — higher, 5.75
- QPPTMIGPMRPEQFSDEVEPATPE — higher, 5.56
- QPPPMIGPMRPEQFSDEVEPATPE — higher, 5.56
- QPPFMIGPMRPEQFSDEVEPATPE — higher, 5.62
- QPPGMIGPMRPEQFSDEVEPATPE — higher, 5.72
- QPPQMIGPMRPEQFSDEVEPATPE — higher, 5.68
- QPPMMIGPMRPEQFSDEVEPATPE — higher, 5.65
- QPPCMIGPMRPEQFSDEVEPATPE — higher, 5.58
- QPPWMIGPMRPEQFSDEVEPATPE — higher, 5.61
- QPPAMIGPMRPEQFSDEVEPATPE — higher, 5.75
- QPPNMIGPMRPEQFSDEVEPATPE — higher, 5.48
- QHPEMIGPMRPEQFSDEVEPATPE — lower, 5.25
- QKPEMIGPMRPEQFSDEVEPATPE — lower, 4.99
- QMPEMIGPMRPEQFSDEVEPATPE — lower, 4.59
- QVPEMIGPMRPEQFSDEVEPATPE — lower, 4.4
- QDPEMIGPMRPEQFSDEVEPATPE — lower, 4.87
- QSPEMIGPMRPEQFSDEVEPATPE — lower, 4.65
- QNPEMIGPMRPEQFSDEVEPATPE — lower, 5.34
- QYPEMIGPMRPEQFSDEVEPATPE — lower, 4.8
- QQPEMIGPMRPEQFSDEVEPATPE — lower, 4.64
- QRPEMIGPMRPEQFSDEVEPATPE — lower, 4.8
- QGPEMIGPMRPEQFSDEVEPATPE — higher, 5.6
- QLPEMIGPMRPEQFSDEVEPATPE — lower, 4.88
- QEPEMIGPMRPEQFSDEVEPATPE — lower, 4.88
- QWPEMIGPMRPEQFSDEVEPATPE — lower, 4.48
- QTPEMIGPMRPEQFSDEVEPATPE — lower, 5.09
- QIPEMIGPMRPEQFSDEVEPATPE — lower, 4.28
- QAPEMIGPMRPEQFSDEVEPATPE — lower, 4.8
- QFPEMIGPMRPEQFSDEVEPATPE — lower, 5.11
- QCPEMIGPMRPEQFSDEVEPATPE — lower, 5.32
- QPCEMIGPMRPEQFSDEVEPATPE — lower, 5.44
- QPDEMIGPMRPEQFSDEVEPATPE — higher, 5.75
- QPEEMIGPMRPEQFSDEVEPATPE — higher, 5.63
- QPQEMIGPMRPEQFSDEVEPATPE — higher, 5.51
- QPKEMIGPMRPEQFSDEVEPATPE — higher, 5.64
- QPWEMIGPMRPEQFSDEVEPATPE — lower, 5.23
- QPIEMIGPMRPEQFSDEVEPATPE — lower, 4.9
- QPNEMIGPMRPEQFSDEVEPATPE — lower, 5.4
- QPHEMIGPMRPEQFSDEVEPATPE — higher, 5.52
- QPSEMIGPMRPEQFSDEVEPATPE — lower, 5.26
- QPREMIGPMRPEQFSDEVEPATPE — higher, 5.71
- QPAEMIGPMRPEQFSDEVEPATPE — higher, 5.73
- QPMEMIGPMRPEQFSDEVEPATPE — higher, 5.76
- QPGEMIGPMRPEQFSDEVEPATPE — lower, 5.17
- QPVEMIGPMRPEQFSDEVEPATPE — lower, 4.83
- QPYEMIGPMRPEQFSDEVEPATPE — lower, 5.32
- QPLEMIGPMRPEQFSDEVEPATPE — lower, 4.76
- QPTEMIGPMRPEQFSDEVEPATPE — higher, 5.57
- QPFEMIGPMRPEQFSDEVEPATPE — lower, 5.22
- SPPEMIGPMRPEQFSDEVEPATPE — lower, 4.89
- NPPEMIGPMRPEQFSDEVEPATPE — lower, 5.06
- GPPEMIGPMRPEQFSDEVEPATPE — lower, 4.64
- LPPEMIGPMRPEQFSDEVEPATPE — lower, 5.07
- IPPEMIGPMRPEQFSDEVEPATPE — lower, 4.78
- DPPEMIGPMRPEQFSDEVEPATPE — lower, 5.42
- FPPEMIGPMRPEQFSDEVEPATPE — lower, 4.95
- VPPEMIGPMRPEQFSDEVEPATPE — lower, 4.68
- RPPEMIGPMRPEQFSDEVEPATPE — lower, 5.04
- WPPEMIGPMRPEQFSDEVEPATPE — higher, 5.49
- EPPEMIGPMRPEQFSDEVEPATPE — lower, 5.01
- MPPEMIGPMRPEQFSDEVEPATPE — lower, 5.27
- HPPEMIGPMRPEQFSDEVEPATPE — lower, 5.06
- YPPEMIGPMRPEQFSDEVEPATPE — lower, 4.8
- CPPEMIGPMRPEQFSDEVEPATPE — lower, 5.33
- KPPEMIGPMRPEQFSDEVEPATPE — lower, 4.57
- TPPEMIGPMRPEQFSDEVEPATPE — lower, 4.94
- APPEMIGPMRPEQFSDEVEPATPE — lower, 4.84
- QPPEMIYPMRPEQFSDEVEPATPE — higher, 5.76
- QPPEMIIPMRPEQFSDEVEPATPE — lower, 5.14
- QPPEMIAPMRPEQFSDEVEPATPE — lower, 5.38
- QPPEMIMPMRPEQFSDEVEPATPE — higher, 5.55
- QPPEMIFPMRPEQFSDEVEPATPE — higher, 5.83
- QPPEMISPMRPEQFSDEVEPATPE — higher, 5.68
- QPPEMIRPMRPEQFSDEVEPATPE — higher, 5.68
- QPPEMICPMRPEQFSDEVEPATPE — higher, 5.63
- QPPEMIVPMRPEQFSDEVEPATPE — higher, 5.68
- QPPEMIWPMRPEQFSDEVEPATPE — higher, 5.73
- QPPEMIDPMRPEQFSDEVEPATPE — lower, 5.22
- QPPEMINPMRPEQFSDEVEPATPE — higher, 5.91
- QPPEMIPPMRPEQFSDEVEPATPE — higher, 5.56
- QPPEMITPMRPEQFSDEVEPATPE — higher, 5.46
- QPPEMIKPMRPEQFSDEVEPATPE — higher, 5.54
- QPPEMIQPMRPEQFSDEVEPATPE — higher, 5.69
- QPPEMIHPMRPEQFSDEVEPATPE — higher, 5.48
- QPPEMILPMRPEQFSDEVEPATPE — lower, 5.44
- QPPEMIEPMRPEQFSDEVEPATPE — higher, 5.69
- QPPEWIGPMRPEQFSDEVEPATPE — higher, 5.54
- QPPEEIGPMRPEQFSDEVEPATPE — lower, 5.15
- QPPEHIGPMRPEQFSDEVEPATPE — higher, 5.5
- QPPEQIGPMRPEQFSDEVEPATPE — lower, 5.25
- QPPEVIGPMRPEQFSDEVEPATPE — lower, 4.27
- QPPEPIGPMRPEQFSDEVEPATPE — higher, 5.9
- QPPEIIGPMRPEQFSDEVEPATPE — lower, 4.57
- QPPECIGPMRPEQFSDEVEPATPE — lower, 4.73
- QPPELIGPMRPEQFSDEVEPATPE — lower, 4.55
- QPPEDIGPMRPEQFSDEVEPATPE — lower, 5.02
- QPPETIGPMRPEQFSDEVEPATPE — lower, 5.19
- QPPESIGPMRPEQFSDEVEPATPE — lower, 3.55
- QPPERIGPMRPEQFSDEVEPATPE — higher, 5.81
- QPPEAIGPMRPEQFSDEVEPATPE — higher, 5.68
- QPPEKIGPMRPEQFSDEVEPATPE — lower, 5.27
- QPPENIGPMRPEQFSDEVEPATPE — lower, 5
- QPPEYIGPMRPEQFSDEVEPATPE — lower, 4.99
- QPPEFIGPMRPEQFSDEVEPATPE — lower, 5.32
- QPPEMIGPRRPEQFSDEVEPATPE — higher, 5.86
- QPPEMIGPERPEQFSDEVEPATPE — higher, 5.62
- QPPEMIGPCRPEQFSDEVEPATPE — higher, 5.7
- QPPEMIGPARPEQFSDEVEPATPE — lower, 5.28
- QPPEMIGPKRPEQFSDEVEPATPE — higher, 5.81
- QPPEMIGPTRPEQFSDEVEPATPE — higher, 5.68
- QPPEMIGPPRPEQFSDEVEPATPE — higher, 5.57
- QPPEMIGPLRPEQFSDEVEPATPE — lower, 5.31
- QPPEMIGPHRPEQFSDEVEPATPE — higher, 5.9
- QPPEMIGPQRPEQFSDEVEPATPE — higher, 5.49
- QPPEMIGPFRPEQFSDEVEPATPE — higher, 5.54
- QPPEMIGPDRPEQFSDEVEPATPE — higher, 5.82
- QPPEMIGPIRPEQFSDEVEPATPE — lower, 5.13
- QPPEMIGPSRPEQFSDEVEPATPE — higher, 5.72
- QPPEMIGPWRPEQFSDEVEPATPE — higher, 5.9
- QPPEMIGPNRPEQFSDEVEPATPE — lower, 4.68
- QPPEMIGPVRPEQFSDEVEPATPE — higher, 5.97
- QPPEMIGPGRPEQFSDEVEPATPE — higher, 5.5

Variants of: B2
Assay: as above
Conditions: c terminus: a fixed tail appended

Point of comparison: WIHRPGCRCKNSNTVYCKLESCPT, protein stability index 2.1. Against it:
- WIHRPGCRCKNSNTVYCKLESCYS — lower, 1.99
- WIHRPGCRCKNSNTVYCKLESCPC — higher, 2.5
- WIHRPGCRCKNSNTVYCKLESCPD — higher, 3.1
- WIHRPGCRCKNSNTVYCKLESCPQ — higher, 2.13
- WIHRPGCRCKNSNTVYCKLESCPV — higher, 2.5
- WIHRPGCRCKNSNTVYCKLESCPK — lower, 2.05
- WIHRPGCRCKNSNTVYCKLESCPM — higher, 2.37
- WIHRPGCRCKNSNTVYCKLESCPN — the same, 2.1
- WIHRPGCRCKNSNTVYCKLESCPG — the same, 2.1
- WIHRPGCRCKNSNTVYCKLESCPA — higher, 2.25
- WIHRPGCRCKNSNTVYCKLESCPP — higher, 2.16
- WIHRPGCRCKNSNTVYCKLESCPH — higher, 2.63
- WIHRPGCRCKNSNTVYCKLESCPF — lower, 2.09
- WIHRPGCRCKNSNTVYCKLESCPR — lower, 1.61
- WIHRPGCRCKNSNTVYCKLESCPW — higher, 3.62
- WIHRPGCRCKNSNTVYCKLESCPL — lower, 2
- WIHRPGCRCKNSNTVYCKLESCPY — higher, 3.13
- WIHRPGCRCKNSNTVYCKLESCPI — higher, 2.29
- WIHRPGCRCKNSNTVYCKLESCPE — higher, 2.52
